Reference: patent publication US7670782B2, “Screening of compounds for CAT1 transporter activity” (XenoPort, Inc., priority 2005, dated 2010)

Test system: NCCC[C@H](N)C(=O)O
Experiment: cells, lysate or membranes
Settings: other: direct uptake into LLCPK-TREx-hCAT1 cells

Chain of hCAT1 (Homo sapiens) (chain, as listed by the source): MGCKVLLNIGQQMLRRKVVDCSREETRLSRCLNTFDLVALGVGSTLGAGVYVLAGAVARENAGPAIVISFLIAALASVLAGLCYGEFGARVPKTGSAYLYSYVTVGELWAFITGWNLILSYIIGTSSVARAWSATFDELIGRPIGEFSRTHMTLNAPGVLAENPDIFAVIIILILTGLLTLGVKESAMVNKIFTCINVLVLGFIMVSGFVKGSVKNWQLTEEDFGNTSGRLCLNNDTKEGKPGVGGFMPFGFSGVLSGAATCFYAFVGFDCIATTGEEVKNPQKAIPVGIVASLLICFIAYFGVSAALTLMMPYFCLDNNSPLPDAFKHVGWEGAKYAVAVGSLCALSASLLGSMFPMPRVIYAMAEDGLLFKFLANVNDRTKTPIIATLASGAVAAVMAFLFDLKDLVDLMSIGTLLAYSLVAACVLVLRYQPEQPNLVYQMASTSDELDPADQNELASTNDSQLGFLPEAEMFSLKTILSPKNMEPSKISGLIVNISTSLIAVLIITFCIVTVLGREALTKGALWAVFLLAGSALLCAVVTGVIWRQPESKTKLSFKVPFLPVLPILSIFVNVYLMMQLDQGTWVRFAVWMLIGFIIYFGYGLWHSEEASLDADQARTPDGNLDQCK

hCAT1 (Homo sapiens)
Km: 200 µM
Km (5 minutes at room temperature, specific uptake (+TET minus no TET)): 184 µM
